Key:
[1] = biological target: His-TrwC/Rep chimera (plasmid R388 / human adeno-associated virus (AAV)) (UniProt P03132); assay: competition; conditions: EMSA: 10 mM Hepes-KOH pH 7.5, 10 mM KCl, 3.3 mM MgCl2, 1 mM EDTA, 2.5 mM DTT, 400 ng poly(dI-dC), 15 mM (Rep68) or 75 mM (chimera) NaCl, room temperature 20 min
[2] = biological target: His-TrwC/Rep chimera (plasmid R388 / human adeno-associated virus (AAV)) (UniProt P03132); assay: EMSA; conditions: EMSA: 10 mM Hepes-KOH pH 7.5, 10 mM KCl, 3.3 mM MgCl2, 1 mM EDTA, 2.5 mM DTT, 400 ng poly(dI-dC), 15 mM (Rep68) or 75 mM (chimera) NaCl, room temperature 20 min
[3] = biological target: TrwC/Rep chimera (untagged) (plasmid R388 / human adeno-associated virus (AAV)) (UniProt P03132); assay: fluorescence polarization; conditions: EMSA: 10 mM Hepes-KOH pH 7.5, 10 mM KCl, 3.3 mM MgCl2, 1 mM EDTA, 2.5 mM DTT, 400 ng poly(dI-dC), 15 mM (Rep68) or 75 mM (chimera) NaCl, room temperature 20 min
[4] = biological target: TrwC/Rep chimeric protein (N-terminal relaxase domain of R388 TrwC fused to the C-terminal domain of AAV2 Rep68) (bacterial plasmid R388 (E. coli) | adeno-associated virus 2 (AAV2)) (UniProt Q47673); assay: AUC; sedimentation velocity, 20°C, 492 nm; 3.32 μM TrwC/Rep chimera with 0.83 μM 5' 6-carboxyfluorescein oriTw(34-mer) ssDNA (protein/DNA 4:1); oligomer size from the theoretical S of a globular complex
His-Rep68 = His-Rep68 (human adeno-associated virus (AAV), UniProt P03132 1-536); assay: EMSA; 100 ng protein, 15 mM NaCl; EMSA: 10 mM Hepes-KOH pH 7.5, 10 mM KCl, 3.3 mM MgCl2, 1 mM EDTA, 2.5 mM DTT, 400 ng poly(dI-dC), 15 mM (Rep68) or 75 mM (chimera) NaCl, room temperature 20 min; FP: 25 mM HEPES pH 7.0, 200 mM NaCl, 25 C; AUC: 25 mM Tris-HCl pH 7.9, 200 mM NaCl, 1 mM TCEP, 20 C; conditions: protein: recombinant, tags: N-terminal His (pET15b, PreScission site)

## GCGCACCGAAAGGTGCGTATTGTCTATAGCCCA [oriTw(25+8)]
[1]
  binding signal: 24 % shifted
[2]
  binding signal: 49 % shifted

## AGCGCACCGAAAGGTGCGTATTGTCTATAGCCCA [oriTw 34-mer (oriTw(25+8) plus 5' dA)]
[3]
  Kd: 16 nM

## TrwC/Rep chimeric protein (N-terminal relaxase domain of R388 TrwC fused to the C-terminal domain of AAV2 Rep68) (from UniProt Q47673 2-293; P03132 209-536) (enzyme)
[4]
  stoichiometry N: > 6 subunits

B1: AAV ori RBSmut (dsDNA)
DNA 1: CTAGATGATGGAGTTGGCCACTCCCTCTCTCCTCCCTCCCTCCCTCACTG
DNA 2: TCGACAGTGAGGGAGGGAGGGAG
His-Rep68; label: 32P 5' end, top strand
  binding result: no binding

B2: oriTw(25+8) (ssDNA)
DNA: GCGCACCGAAAGGTGCGTATTGTCTATAGCCCA
His-Rep68; label: 32P, inverted repeat IR2
  binding result: no binding

From paper PMC6049929, “Exchange of functional domains between a bacterial conjugative relaxase and the integrase of the human adeno-associated virus”
